Experiments:
[1] = target: AvmM (Streptomyces sp. TP-A0867); assay: SEC; HiLoad 16/600 Superdex 200 pg, 50 mM NaCl, 20 mM Tris pH 8.0, 4 °C, 1 mL/min; calibrated with cytochrome c, ovalbumin, aldolase, ferritin
[2] = target: AvmM (Streptomyces sp. TP-A0867); assay: crystal structure; sitting drop, 22 °C; protein 10 mg/mL in 50 mM NaCl, 20 mM Tris pH 8.0; reservoir 0.2 M magnesium acetate, 0.1 M sodium cacodylate pH 6.5, 20% PEG 8000; apo AvmM at 2.09 Å and AvmM with product 2 at 2.5 Å

- stoichiometry N [1]: 3
- stoichiometry N [2]: 3
Substance: AvmM (enzyme)

From PMC9349299
